Reference: article PMC12529927, “Functional microRNA targeting without seed pairing”
Where a chain is given by its changes, count along the chain named.

Experiments:
[1] = target: T1, AGO2 (loaded with guide RNA) (Homo sapiens, UniProt Q9UKV8 1-859); test: filter binding; range over four guides; 18 mM HEPES pH 7.4, 100 mM K-acetate, 1 mM Mg-acetate, 0.01% IGEPAL, 0.01 mg/mL yeast tRNA, 5 mM DTT, BSA, glycerol, 37 C, 4 h, 1-5 pM target; kinetics with 10; conditions: protein: recombinant, tags: 3xFLAG-SUMOEu1 (removed by SENPEuB cleavage)
T1 sequence (Q9UKV8 whole entry): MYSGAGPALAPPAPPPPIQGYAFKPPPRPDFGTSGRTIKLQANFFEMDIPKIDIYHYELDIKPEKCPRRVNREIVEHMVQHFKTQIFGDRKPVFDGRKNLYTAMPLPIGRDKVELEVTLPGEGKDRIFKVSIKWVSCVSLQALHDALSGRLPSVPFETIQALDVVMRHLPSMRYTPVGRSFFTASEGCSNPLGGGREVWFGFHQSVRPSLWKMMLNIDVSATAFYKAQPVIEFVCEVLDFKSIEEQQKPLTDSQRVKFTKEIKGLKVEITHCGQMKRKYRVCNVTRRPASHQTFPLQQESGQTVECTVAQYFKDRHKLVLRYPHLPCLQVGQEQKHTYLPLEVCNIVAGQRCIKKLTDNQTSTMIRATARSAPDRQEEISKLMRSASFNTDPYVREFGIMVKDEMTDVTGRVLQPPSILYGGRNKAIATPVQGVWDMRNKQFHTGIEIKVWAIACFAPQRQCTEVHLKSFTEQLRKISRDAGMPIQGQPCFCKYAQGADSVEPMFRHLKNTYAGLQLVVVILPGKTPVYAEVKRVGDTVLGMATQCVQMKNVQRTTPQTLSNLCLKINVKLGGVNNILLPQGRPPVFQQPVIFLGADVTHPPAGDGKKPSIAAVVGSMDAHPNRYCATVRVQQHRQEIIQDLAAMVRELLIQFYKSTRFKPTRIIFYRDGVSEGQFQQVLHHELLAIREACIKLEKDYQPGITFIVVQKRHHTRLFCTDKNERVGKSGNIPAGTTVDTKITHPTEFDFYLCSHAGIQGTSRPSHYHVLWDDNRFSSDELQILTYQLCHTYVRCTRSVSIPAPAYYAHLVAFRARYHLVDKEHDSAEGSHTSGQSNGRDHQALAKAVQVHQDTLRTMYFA

[2] = target: AGO2 D669A (loaded with guide RNA) (Homo sapiens, UniProt Q9UKV8 1-859, D669A); test: hydroxyl radical footprinting; guide 3' region more accessible; 18 mM HEPES pH 7.4, 100 mM K-acetate, 1 mM Mg-acetate, 0.01% IGEPAL, 0.01 mg/mL yeast tRNA, 5 mM DTT, BSA, glycerol, 37 C, 4 h, 1-5 pM target; kinetics with 10; conditions: protein: recombinant, tags: 3xFLAG-SUMOEu1
AGO2 D669A (loaded with guide RNA), sequence (Q9UKV8 whole entry D669A): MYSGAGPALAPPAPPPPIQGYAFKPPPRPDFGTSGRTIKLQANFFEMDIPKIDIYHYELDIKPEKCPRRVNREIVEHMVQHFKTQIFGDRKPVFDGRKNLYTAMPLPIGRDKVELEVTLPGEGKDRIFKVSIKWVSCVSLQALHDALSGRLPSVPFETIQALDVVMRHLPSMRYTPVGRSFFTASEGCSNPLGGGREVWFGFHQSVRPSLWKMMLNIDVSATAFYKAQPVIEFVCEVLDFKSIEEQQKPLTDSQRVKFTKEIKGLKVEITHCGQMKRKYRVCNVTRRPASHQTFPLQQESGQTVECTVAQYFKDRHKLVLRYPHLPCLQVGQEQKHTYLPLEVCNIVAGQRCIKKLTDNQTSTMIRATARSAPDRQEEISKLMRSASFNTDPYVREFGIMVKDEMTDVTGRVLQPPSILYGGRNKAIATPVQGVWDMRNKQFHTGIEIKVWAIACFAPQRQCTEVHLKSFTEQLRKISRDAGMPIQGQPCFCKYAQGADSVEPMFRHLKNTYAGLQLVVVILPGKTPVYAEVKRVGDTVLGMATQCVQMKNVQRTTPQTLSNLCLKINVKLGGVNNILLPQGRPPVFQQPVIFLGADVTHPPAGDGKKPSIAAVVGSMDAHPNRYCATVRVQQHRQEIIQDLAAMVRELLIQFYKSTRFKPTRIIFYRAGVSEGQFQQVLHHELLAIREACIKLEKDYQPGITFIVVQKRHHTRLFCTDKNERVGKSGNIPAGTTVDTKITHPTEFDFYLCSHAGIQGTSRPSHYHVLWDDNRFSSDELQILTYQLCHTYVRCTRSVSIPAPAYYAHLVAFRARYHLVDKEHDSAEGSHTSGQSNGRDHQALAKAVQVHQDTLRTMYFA

[3] = target: T1, AGO2 (loaded with guide RNA); test: filter binding; not above no-site control; 18 mM HEPES pH 7.4, 100 mM K-acetate, 1 mM Mg-acetate, 0.01% IGEPAL, 0.01 mg/mL yeast tRNA, 5 mM DTT, BSA, glycerol, 37 C, 4 h, 1-5 pM target; kinetics with 10; conditions: protein: recombinant, tags: 3xFLAG-SUMOEu1 (removed by SENPEuB cleavage), label: 32P target
[4] = target: T1, AGO2 (loaded with guide RNA); test: filter binding; upper bound, ~5 pM; 18 mM HEPES pH 7.4, 100 mM K-acetate, 1 mM Mg-acetate, 0.01% IGEPAL, 0.01 mg/mL yeast tRNA, 5 mM DTT, BSA, glycerol, 37 C, 4 h, 1-5 pM target; kinetics with 10; conditions: protein: recombinant, tags: 3xFLAG-SUMOEu1 (removed by SENPEuB cleavage), label: 32P target, offset +2
[5] = target: T1, AGO2 (loaded with guide RNA); test: filter binding; no boost over m11_23; 18 mM HEPES pH 7.4, 100 mM K-acetate, 1 mM Mg-acetate, 0.01% IGEPAL, 0.01 mg/mL yeast tRNA, 5 mM DTT, BSA, glycerol, 37 C, 4 h, 1-5 pM target; kinetics with 10; conditions: protein: recombinant, tags: 3xFLAG-SUMOEu1 (removed by SENPEuB cleavage), label: 32P target, offset +2
[6] = label: 32P target, g13-22 paired
[7] = label: 32P target, complementary to g9-19

B1: miR-155 mut / m11_23 (mixed)
RNA 1: UUCGUGCUAAUCGUGAUAGGGGU
RNA 2: UUUUUUACCCCUAUCACGACCUUUUUUUUUUUUUUU
modifications: 5'-phosphate guide
B1 showed a Kd ([1]; label: 32P target, g11-23 paired) of ~0.0265 nM.

B2: miR-124 wt / m9_22 (mixed)
RNA 1: UAAGGCACGCGGUGAAUGCCAA
RNA 2: UUUUUUUUGGCAUUCACCGCUUUUUUUUUUUUUUUU
modifications: 5'-phosphate guide
With B2 the Kd ([1]; complementary to g9-22) was ~0.0265 nM and the binding result ([2]; guide:target, complementary to g9-22) was “binds”.

B3: miR-124 mut / m9_22 (mixed)
RNA 1: UCUGGCUCGCGGUGAAUGCCAA
RNA 2: B2 RNA 2
modifications: 5'-phosphate guide
Binder B3 has a Kd ([1]; label: 32P target, complementary to g9-22) of ~0.0265 nM.

B4: miR-155 wt / m13_20 (mixed)
RNA 1: UUAAUGCUAAUCGUGAUAGGGGU
RNA 2: UUUUUUUCCUAUCACUUUUUUUUUUUUUU
modifications: 5'-phosphate guide
B4: no binding ([3]; g13-20 paired).

B5: miR-155 mut / m13_20 (mixed)
RNA 1: UUCGUGCUAAUCGUGAUAGGGGU
RNA 2: UUUUUUUCCUAUCACUUUUUUUUUUUUUU
modifications: 5'-phosphate guide
B5: no binding ([3]; g13-20 paired).

B6: miR-124 wt / m11_18 (mixed)
RNA 1: UAAGGCACGCGGUGAAUGCCAA
RNA 2: UUUUUUUUCAUUCACCUUUUUUUUUUUU
modifications: 5'-phosphate guide
B6: no binding ([3]; g11-18 paired).

B7: miR-155 mut / m11_23|+2|m2_7 (mixed)
RNA 1: UUCGUGCUAAUCGUGAUAGGGGU
RNA 2: UUUUACCCCUAUCACGACCUUUGCACGAUUUU
modifications: 5'-phosphate guide
With B7 the Kd ([4]; g11-23 and g2-7 paired) was < 5 pM.

B8: miR-124 mut / m11_18 (mixed)
RNA 1: UCUGGCUCGCGGUGAAUGCCAA
RNA 2: UUUUUUUUCAUUCACCUUUUUUUUUUUU
modifications: 5'-phosphate guide
B8: no binding ([3]; g11-18 paired).

B9: miR-155 mut / m11_23|+2|m2 (mixed)
RNA 1: UUCGUGCUAAUCGUGAUAGGGGU
RNA 2: UUUUACCCCUAUCACGACCUUUUUUUUAUUUU
modifications: 5'-phosphate guide
B9: binds ([5]; g11-23 and g2 paired).

B10: miR-155 mut / m11_23|+2|m2_3 (mixed)
RNA 1: UUCGUGCUAAUCGUGAUAGGGGU
RNA 2: B9 RNA 2 with U27G
modifications: 5'-phosphate guide
B10: binds ([5]; g11-23 and g2-3 paired).

B11: miR-155 mut / m11_23|+2|m2_8 (mixed)
RNA 1: UUCGUGCUAAUCGUGAUAGGGGU
RNA 2: B7 RNA 2 with U22A
modifications: 5'-phosphate guide
B11 was tested, and the Kd ([4]; g11-23 and g2-8 paired) was < 5 pM.

B12: miR-155 mut / m11_23|+2|m1_8 (mixed)
RNA 1: UUCGUGCUAAUCGUGAUAGGGGU
RNA 2: UUUUUUACCCCUAUCACGACCUUAGCACGAAUUUUUUUUU
modifications: 5'-phosphate guide
For B12, the Kd ([4]; g11-23 and g1-8 paired) was < 5 pM.

B13: miR-155 wt / m11_23 (mixed)
RNA 1: UUAAUGCUAAUCGUGAUAGGGGU
RNA 2: B1 RNA 2
modifications: 5'-phosphate guide
B13 was tested, and the Kd ([1]; g11-23 paired) was ~0.0265 nM and the binding result ([2]; guide:target, g11-23 paired) was “binds”.

B14: miR-155 wt / m11_23|+2|m1_8 (mixed)
RNA 1: UUAAUGCUAAUCGUGAUAGGGGU
RNA 2: B12 RNA 2 with C28U, G29U
modifications: 5'-phosphate guide
B14: binds ([2]; label: 32P target (kon) or 32P guide (probing), g11-23 and g1-8 paired, offset +2).

B15: miR-155 wt / m13_22 (mixed)
RNA 1: UUAAUGCUAAUCGUGAUAGGGGU
RNA 2: UUUUUUCCCCUAUCACUUUUUUUUUUUUUUUU
modifications: 5'-phosphate guide
Binder B15 has a Kd [1, 6] of ~0.205 nM.

B16: miR-124 wt / m9_22|+3|m1_8 (mixed)
RNA 1: UAAGGCACGCGGUGAAUGCCAA
RNA 2: UUUUUUUUGGCAUUCACCGCUUUGUGCCUUAUUUUUUUUU
modifications: 5'-phosphate guide
B16: binds ([2]; label: 32P guide, g9-22 and g1-8 paired, offset +3).

B17: miR-155 mut / m13_22 (mixed)
RNA 1: UUCGUGCUAAUCGUGAUAGGGGU
RNA 2: B15 RNA 2
modifications: 5'-phosphate guide
In the case of B17, the Kd [1, 6] is reported as ~0.205 nM.

B18: miR-124 wt / m9_19 (mixed)
RNA 1: UAAGGCACGCGGUGAAUGCCAA
RNA 2: UUUUUUGCAUUCACCGCUUUUUUUUUUUUUUU
modifications: 5'-phosphate guide
For B18, the Kd [1, 7] was ~0.205 nM.

B19: miR-124 mut / m9_19 (mixed)
RNA 1: UCUGGCUCGCGGUGAAUGCCAA
RNA 2: B18 RNA 2
modifications: 5'-phosphate guide
Binder B19 has a Kd [1, 7] of ~0.205 nM.
